The target in experiment [1] is Zn-containing form of the soluble domain of the Rieske-type iron-sulfur protein PetA from Thermochromatium tepidum (Thermochromatium tepidum). As to the kind of experiment: SEC-MALS; Superdex 200 Increase 10/300 GL, buffer A, 0.5 mL/min, 24 °C; about 100 µL of 7.3 mg/mL protein (first colorless SEC fraction) injected. A general note: Size exclusion chromatography separates by hydrodynamic size, large species first.

For experiment [2] the target is unchanged. Description: SEC; purification step after removal of the His-tag; HiLoad 16/60 Superdex 75 in buffer A (10 mM Tris-HCl pH 7.6, 150 mM NaCl); masses estimated with low molecular weight marker mixture.

With “Zn-containing form of the soluble domain of the Rieske-type iron-sulfur protein PetA from Thermochromatium tepidum (domain or fragment)”, the stoichiometry N in experiment [1] and in experiment [2] was 2 each time.
